Laboratory results as given in US20190256588A1 (BEIJING HANMI PHARM, published 2019).

Legend:
Assay in all cases: ELISA, cytokine coated on plate at 1 µg/mL
recombinant human IL-17D = target: T1, recombinant human IL-17D (human, UniProt Q8TAD2 16-202, limits assumed)
T1 sequence (looked up): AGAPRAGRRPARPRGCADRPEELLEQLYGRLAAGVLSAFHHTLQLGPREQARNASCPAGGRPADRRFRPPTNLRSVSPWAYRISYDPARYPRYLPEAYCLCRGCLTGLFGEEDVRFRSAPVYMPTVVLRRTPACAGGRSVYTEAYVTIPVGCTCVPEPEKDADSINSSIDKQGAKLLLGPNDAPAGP
Experimental: (§1) Recombinant human IL-17A, IL-17B, IL-17C, IL-17D, IL-17E, IL-17F, IL-1, IL-2, IL-6, IL-8, IL-21, IL-22, IL-23, IFN-g and TNFα (purchased from Sino Biological Inc. or R&D systems) were coated on a 96-well high-absorbing ELISA plate with a carbonate buffer solution with pH 9.6, the coating concentration was 1 μg/mL, the coating amount was 100 μL per well, and the coating was carried ax 4° C. out overnight. The plate was washed five times with PBST and blocked with 300 μL/well of PBST containing 1% BSA and incubated at 25° C. for 1 hour. The plate was washed five times with PBST. […] The plate was washed five times with PBST. Then, horseradish peroxidase-labeled anti-human IgG antibody (Chemicon, Catalog Number AP309P) 1:2000 diluted in PBST containing 1% BSA was added, 100 μL was added to each well, incubated at 25° C. for 1 hour. The plate was washed five times with PBST. 100 μL/well of colorimetric substrate TMB was added and incubated at room temperature for 10 minutes. Color development was terminated by adding 100 μL/well of 1 M H₂SO₄. The absorbance at 450 nm was read on a microplate reader.
(§2) Recombinant human IL-17A, IL-17B, IL-17C, IL-17D, IL-17E, IL-17F, IL-1, IL-2, IL-6, IL-8, IL-21, IL-22, IL-23, IFN-g and TNFα (purchased from Sino Biological Inc. or R&D systems) were coated on a 96-well high-absorbing ELISA plate with a carbonate buffer solution with pH 9.6, the coating concentration was 1 μg/mL, the coating amount was 100 μL per well, and the coating was carried at 4° C. out overnight. Washed five times with PBST. Blocked with 300 μL/well of PBST containing 1% BSA and incubated at 25° C. for 1 hour. Washed five times with PBST.

recombinant human IFN-g = target: T2, recombinant human IFN-g (human, UniProt P01579 24-166, limits assumed)
T2 sequence (looked up): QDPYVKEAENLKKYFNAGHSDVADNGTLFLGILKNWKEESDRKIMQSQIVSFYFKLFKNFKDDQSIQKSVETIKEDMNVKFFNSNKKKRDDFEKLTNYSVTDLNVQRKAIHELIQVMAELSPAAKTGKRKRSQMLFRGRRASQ
Experimental: as §1, §2

recombinant human TNFα = recombinant human TNFα (human, UniProt P01375 77-233)
Chain of recombinant human TNFα (P01375 77-233 limits assumed): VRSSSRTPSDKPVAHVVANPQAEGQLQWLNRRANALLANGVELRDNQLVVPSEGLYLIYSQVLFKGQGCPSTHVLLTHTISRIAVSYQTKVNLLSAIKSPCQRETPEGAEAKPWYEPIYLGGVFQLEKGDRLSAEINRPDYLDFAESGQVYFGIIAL
Experimental: as §1, §2

recombinant human IL-23 = target: T3, recombinant human IL-23 (human, UniProt Q9NPF7 20-189; P29460 23-328)
T3 sequence (looked up) 1: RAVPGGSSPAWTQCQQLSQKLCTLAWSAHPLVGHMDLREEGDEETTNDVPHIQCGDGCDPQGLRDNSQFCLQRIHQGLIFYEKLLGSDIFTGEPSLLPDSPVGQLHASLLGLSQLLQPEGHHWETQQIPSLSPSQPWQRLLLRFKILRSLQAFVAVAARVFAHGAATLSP
T3 sequence (looked up) 2: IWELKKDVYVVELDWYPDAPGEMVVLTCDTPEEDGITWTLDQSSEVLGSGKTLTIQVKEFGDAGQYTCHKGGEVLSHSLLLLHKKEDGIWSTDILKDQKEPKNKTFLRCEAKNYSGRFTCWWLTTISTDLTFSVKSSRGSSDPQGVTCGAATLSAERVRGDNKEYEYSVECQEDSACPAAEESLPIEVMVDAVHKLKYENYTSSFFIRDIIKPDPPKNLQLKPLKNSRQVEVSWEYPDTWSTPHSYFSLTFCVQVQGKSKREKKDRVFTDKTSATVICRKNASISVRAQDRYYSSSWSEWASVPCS
Experimental: as §1, §2

recombinant human IL-8 = recombinant human IL-8 (human, UniProt P10145 28-99, limits assumed)
Chain of recombinant human IL-8 (P10145 28-99 limits assumed): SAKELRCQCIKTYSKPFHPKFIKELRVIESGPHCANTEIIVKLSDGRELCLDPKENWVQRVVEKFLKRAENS
Experimental: as §1, §2

recombinant human IL-17E = target: T4, recombinant human IL-17E (human, UniProt Q9H293 33-177)
T4 sequence (looked up): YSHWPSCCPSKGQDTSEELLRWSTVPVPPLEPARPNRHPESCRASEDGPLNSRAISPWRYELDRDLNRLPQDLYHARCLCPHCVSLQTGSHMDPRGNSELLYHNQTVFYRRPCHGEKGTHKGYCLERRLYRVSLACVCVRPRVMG
Experimental: as §1, §2

recombinant human IL-17B = target: T5, recombinant human IL-17B (human, UniProt Q9UHF5 21-180)
T5 sequence (looked up): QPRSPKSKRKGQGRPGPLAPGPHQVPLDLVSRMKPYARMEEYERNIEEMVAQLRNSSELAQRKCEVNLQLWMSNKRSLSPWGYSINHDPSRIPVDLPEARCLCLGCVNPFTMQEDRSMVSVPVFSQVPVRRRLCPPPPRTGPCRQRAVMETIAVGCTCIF
Experimental: as §1, §2

recombinant human IL-6 = recombinant human IL-6 (human, UniProt P05231 30-212)
Chain of recombinant human IL-6 (P05231 30-212 limits assumed): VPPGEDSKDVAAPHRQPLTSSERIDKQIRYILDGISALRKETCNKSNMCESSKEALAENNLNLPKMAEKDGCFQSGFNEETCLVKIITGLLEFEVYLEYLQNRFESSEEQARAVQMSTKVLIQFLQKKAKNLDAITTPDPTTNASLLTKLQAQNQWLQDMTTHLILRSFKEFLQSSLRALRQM
Experimental: as §1, §2

Measured: binding result

B1: anti-human IL-17A chimeric monoclonal antibody (antibody, human IgG1, kappa, V domains shown)
VH: DVQVQESGPGLVKPSQSLSLTCTVTGNSITSYYAWNWIRQFPGNKLEWMGYITYSGTTSYNPSLKSRISITRDTSKNQFFLQLNSVTTEDTATYYCAREEYDDIYAVDYWGQGTSVTVSS
VL: IIVMTQTPLSLPVSLGDQASISCRSSQSLVHSNGNTYLHWYLQKPGQSPKLLIYKVYNRFSGVPDRFSGSGSGTDFTLKISRVEAEDLGVYFCSQSTHFPTFGGGTKLEIKR
notes: expressed in 293F cells; also called Anti-human IL-17A Chimeric Antibody; chimeric anti-human IL-17A monoclonal antibody
no binding: recombinant human IL-17D | recombinant human IFN-g | recombinant human TNFα | recombinant human IL-23 | recombinant human IL-8 | recombinant human IL-17E | recombinant human IL-17B | recombinant human IL-6
